Broadly, the EC50 (read off the curve) is the concentration at which the effect is half-maximal.

Assay [1] addresses human protein Axl expressed on cells (SN12C human renal tumor cells; CHO-Axl cells) (human) (UniProt P30530). As to the kind of experiment: flow cytometry, labelling of untreated (No Ab) SN12C cells. In general terms: A flow cytometer gives signals particle by particle.
Assay [2] shares this target. Description: flow cytometry, labelling of SN12C cells treated 24 h with 9G4 at 10 µg/ml.
Assay [3] shares this target. Description: QIFIKIT quantitative flow cytometry on Calu-1 cells (lung).
Assay [4] has the same target. As to the kind of experiment: QIFIKIT quantitative flow cytometry on MCF7 cells (breast).
The target is the same in assay [5]. As to the kind of experiment: QIFIKIT quantitative flow cytometry on SN12C cells (renal).
For assay [6] the target is unchanged. As to the kind of experiment: QIFIKIT quantitative flow cytometry on PC3 cells (prostate).
The target is the same in assay [7]. As to the kind of experiment: QIFIKIT quantitative flow cytometry on NCI-H125 cells (NSCLC).
For assay [8] the target is unchanged. Description: QIFIKIT quantitative flow cytometry on NCI-H226 cells (NSCLC).
Assay [9] has the same target. Description: QIFIKIT quantitative flow cytometry on Panc1 cells (pancreas).
Assay [10] shares this target. Description: QIFIKIT quantitative flow cytometry on DU-145 cells (prostate).
For assay [11] the target is unchanged. As to the kind of experiment: QIFIKIT quantitative flow cytometry on A172 cells (glioblastoma).
For assay [12] the target is unchanged. Description: QIFIKIT quantitative flow cytometry on MDA-MB-231 cells (breast).
Assay [13] has the same target. Description: QIFIKIT quantitative flow cytometry on MDA-MB-435S cells (breast).
Assay [14] has the same target. As to the kind of experiment: QIFIKIT quantitative flow cytometry on A431 cells (epidermoid carcinoma).
Assay [15] has the same target. As to the kind of experiment: Qifikit (Dako) quantitative flow cytometry on SN12C human renal cancer cells.
In assay [16] the target is monkey Axl receptor expressed on the surface of COS7 cells (African green monkey). Description: flow cytometry titration on COS7 cells.
Assay [17] has the same target. As to the kind of experiment: flow cytometry on COS7 cells, goat anti-mouse Alexa 488.
For assay [18], the target named is T1, human protein Axl expressed on cells (SN12C human renal tumor cells; CHO-Axl cells) (human, UniProt P30530 26-894).
T1 construct: also called membrane Axl receptor; cell-surface Axl
T1 sequence: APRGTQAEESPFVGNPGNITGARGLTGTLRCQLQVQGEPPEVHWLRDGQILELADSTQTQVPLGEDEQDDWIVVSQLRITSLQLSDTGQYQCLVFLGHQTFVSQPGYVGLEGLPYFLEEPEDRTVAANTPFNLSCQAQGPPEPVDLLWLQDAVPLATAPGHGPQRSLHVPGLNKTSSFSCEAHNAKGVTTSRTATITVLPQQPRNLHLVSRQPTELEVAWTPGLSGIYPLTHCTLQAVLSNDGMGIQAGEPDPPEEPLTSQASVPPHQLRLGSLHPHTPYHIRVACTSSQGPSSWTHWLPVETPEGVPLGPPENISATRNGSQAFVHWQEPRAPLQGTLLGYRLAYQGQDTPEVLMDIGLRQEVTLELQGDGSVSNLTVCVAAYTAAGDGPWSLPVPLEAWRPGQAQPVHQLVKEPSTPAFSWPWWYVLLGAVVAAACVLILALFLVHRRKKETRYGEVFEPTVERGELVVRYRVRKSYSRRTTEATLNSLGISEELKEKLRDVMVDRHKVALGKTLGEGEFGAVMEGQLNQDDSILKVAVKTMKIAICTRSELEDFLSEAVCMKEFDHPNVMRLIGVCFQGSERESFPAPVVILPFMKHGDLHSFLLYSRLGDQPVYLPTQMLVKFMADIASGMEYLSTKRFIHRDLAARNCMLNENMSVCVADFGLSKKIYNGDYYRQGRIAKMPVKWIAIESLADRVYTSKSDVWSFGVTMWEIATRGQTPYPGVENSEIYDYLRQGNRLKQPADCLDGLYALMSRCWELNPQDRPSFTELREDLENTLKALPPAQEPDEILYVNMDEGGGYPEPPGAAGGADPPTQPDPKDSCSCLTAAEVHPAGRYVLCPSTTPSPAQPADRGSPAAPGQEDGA
As to the kind of experiment: flow cytometry on SN12C cells, goat anti-mouse Alexa 488.

On to 9G4 (mIgG1 isotype control antibody), for which the MFI at T24 h in [1] came out at 11 MFI; in assay [2], 13 MFI.
Take “MAB154 anti-Axl commercial antibody (R and D Systems)”: the ABC (Qifikit) in assay [3] is > 100000 ABC; in assay [4] it was 71 ABC; in [5], > 100000 ABC; in [6], 8420 ABC; in assay [7], 5540 ABC; in assay [8], 32100 ABC. Further, the ABC (Qifikit) in assay [9] came out at 36800 ABC; in [10], 55300 ABC; in [11], 52400 ABC; in assay [12], 61200 ABC; in [13], 17800 ABC; in assay [14], 3950 ABC. Moreover, the MFI at T24 h in assay [1] is 950 MFI. In addition, the Antigen binding capacity (Qifikit) in assay [15] is > 100000 ABC.

B1: 1613F12 (antibody, V domains shown)
VH: EVHLQQSGAELVKPGASVKLSCTASGFNIRDTYIHWVKQRPEQGLEWIGRLDPANGHTKYGPNFQGRATMTSDTSSNTAYLQLSSLTSEDTAVYYCARGAYYYGSSGLFYFDYWGQGTTLSVSS
VL: DVQITQSPSYLATSPGETITINCRASKSISKYLAWYQEKPGKTNKLLIYSGSTLQSGVPSRFSGSGSGTDFTLTISSLEPEDFAMYFCQQHHEYPLTFGAGTELELK
notes: also called 1613F12 antibody; 1613F12 Mab
On to B1, for which the concentration above which the plateau is reached in [16] is > 420 pM. In addition, the figures for the EC50 (read off the curve) in [17] and in [18] were 1 nM and ~0.9 nM, respectively.
